Biological target: trimeric post-fusion hMPV B2 F protein (trypsinized) (human metapneumovirus (hMPV), subgroup B2 | T4 bacteriophage)
Assay: SEC

## trimeric post-fusion hMPV B2 F protein (trypsinized) (natural protein)
  stoichiometry N: 3

Source: paper doi:10.1101/2021.05.19.444868
